Earlier results on one substance are cited in article PMC4078514, “A Bombesin-Shepherdin Radioconjugate Designed for Combined Extra- and Intracellular Targeting” (Pharmaceuticals, 2014).

pKd: −log10 of the molar value.

This data set has as its target Hsp90 (Homo sapiens) (UniProt P07900).

Chain of Shepherdin 79-83 (O15392 whole entry, looked up, tested part not stated): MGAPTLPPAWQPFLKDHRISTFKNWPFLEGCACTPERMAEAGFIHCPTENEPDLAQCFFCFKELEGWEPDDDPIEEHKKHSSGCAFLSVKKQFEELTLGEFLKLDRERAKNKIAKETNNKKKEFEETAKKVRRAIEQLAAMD

Consider Shepherdin 79-83 (from UniProt O15392), for which the pKd (as a rule, −log10 of the Kd, conventionally taken in molar units) is 7.10.
